Article PMC8899190 (2022)

Columns and labels:
Experiment in all cases: BLI
[1] = biological target: T1, Avi-tagged, biotinylated h14-3-3ß WT (human, UniProt P31946 1-239, biotin on the N-terminal Avi tag)
T1 chain: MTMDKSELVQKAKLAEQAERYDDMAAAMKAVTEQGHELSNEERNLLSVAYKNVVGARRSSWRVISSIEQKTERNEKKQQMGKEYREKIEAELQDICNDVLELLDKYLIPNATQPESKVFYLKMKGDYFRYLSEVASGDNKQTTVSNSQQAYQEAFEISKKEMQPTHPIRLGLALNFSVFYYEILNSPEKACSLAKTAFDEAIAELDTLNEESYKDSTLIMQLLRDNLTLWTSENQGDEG

[2] = biological target: T2, Avi-tagged, biotinylated h14-3-3ß_(nY130) (human, UniProt P31946 1-246, 3-nitrotyrosine at 130; biotin on the N-terminal Avi tag)
T2 chain: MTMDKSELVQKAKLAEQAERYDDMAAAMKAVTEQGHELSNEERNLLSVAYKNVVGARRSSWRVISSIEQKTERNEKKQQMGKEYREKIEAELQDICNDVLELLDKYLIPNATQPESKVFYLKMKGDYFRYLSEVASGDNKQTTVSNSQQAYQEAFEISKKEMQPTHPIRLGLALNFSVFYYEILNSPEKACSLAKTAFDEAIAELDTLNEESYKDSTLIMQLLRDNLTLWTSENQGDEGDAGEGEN

[3] = biological target: T3, Avi-tagged, biotinylated h14-3-3ß_(nY213) (human, UniProt P31946 1-246, 3-nitrotyrosine at 213; biotin on the N-terminal Avi tag)
T3 chain: T2 chain

Kd [1]: 91 nM
Kd [2]: 100 nM
Kd [3]: 104 nM
B1: Nb-G5 (C115S) (VHH)
VHH: QVQLQESGGGLVQPGGSLRLSCAASKNIANFDSMAWYRRSPGKERDLVARLYSDGGTNYEDSVKGRFNISTDIEKNTVYLQMNNLKLEDTARYYCRADLGLFDTSEFPGQGTQVTVSS
